Assay results published in the nanobody polyreactivity screen of Harvey et al. (2022).

assay: yeast display, Sf9 membrane polyspecificity reagent, FACS + sequencing; frameworks hold sequencing errors
Procedure, shortened: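 Polyreactivity labels are assigned by the sorting gate from which each nanobody was recovered. The gates were low and high (top ~1%), set on anti-HA fluorescence for expression and streptavidin fluorescence for reagent binding. Before sorting, galactose-induced (36–48 hours) yeast display cells were stained for 1 hour at 4 °C with 10% biotinylated, detergent-solubilized Sf9 membrane reagent.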

Row | Sequence | polyreactivity (PSR sort gate)
1 | QDQLVESGGGLVQAGASLRLSCAASGSNGYYAMGWYRQAPGKERELVAVISRSGTGTYYADSVKGRFTISRDNAKNSVYLQMNSLKPEDTAVYYCNAETYTYRYEYDYWGQGTQVTVSS | high polyreactivity
2 | QDQLVESGGGLVQAGCSLRLSCAASGLIFNYKVMGWYRHAPGKERELVAAISRGGSTYYADSVKGRFTFSRDNAKNTVYLQMNSLKPEDTAVYYCAARYRSRYDYWGQGTQVTVSS | high polyreactivity
3 | QDQLVESGGGLVQAGCSLRLSCAASGSTIPYNAMGWYRQAPGKERELVAAITWRAGRTYYADSVKGRFTISRDNAKITVYLQMNSLKAEDTAVYDCAKSYQRGVNHYEYWGQGTQVTVSS | high polyreactivity
4 | QDQLVESGGGLVQAGGRLRLSCAASGLMFYYYAMGWYIQAPGKEREFVAAISRSGGITRYADSVKGRFTISRDNAKNTVYLQMNRLKPEDTAVYYCAAAVGSVRYDYWGQGTQVTVSS | high polyreactivity
5 | QDQLVESGGGLVQAGGSHRLSCAASGFIIGYYAMGWYRQAPGKEMELVASIRRGGSTYYADSVKGRFTISRDNAKNTVYLQMNSLKPEDTAVYYCAAQRSVVGWWSRTSLYGDSDYWGLGTQVTVSS | high polyreactivity
6 | QDQLVESGGGLVQAGGSLCLSCAASGITFRFYAMGWNRQAPGKERELVAAISWSGGRTYYADSVKGRFTISRDNAKNTVYLQMNSLKPEDTAVYYCAAEASSVPGYDYWGEGTQVTVSS | low polyreactivity
7 | QDQLVESGGGLVQAGGSLGLSCAASGITFDLYDMGWYRQAPGKERELVAAITDAHSTYYADSVKGRFTISRDNAKNTVYLQMNSLKPEDTAVYYCAADFFYSVDSGHYDYWGQGTQVTVSS | low polyreactivity
8 | QDQLVESGGGLVQAGGSLRISCAASGFTLKKYVMGWYRQAPGKERELVAAISSSGGSTYYADSVKGRFTISRDNAKNTVYLQMNSLKPEDTAVYYCAAVQSYAGFEYGYWGQGTQVTVSS | high polyreactivity
9 | QDQLVESGGGLVQAGGSLRISCAASGSTFPLYAMGWYRQAPGKEMEFVAAIRWIGGSTYYADSVKGRFTISRDNAMNTVYLQMNSLKPEDTAVYYCAADYVVSAFDYWGQGTQVTVSS | low polyreactivity
10 | QDQLVESGGGLVQAGGSLRISCGASGRIFDIYAMGWYRQAPGKERELVADITSGGSTYYADSVQGRFTISRVNAKNTVYLQMNSLKPEDTAVYYCAARLFADYWGQGTHVTVSS | low polyreactivity
11 | QDQLVESGGGLVQAGGSLRLICAASGFTFRWYSMGWYRQAPGKERELVADISRGGSTNYADSVKGRFTISRDHAKNSVYLQMNSLTPEDTAVFYCAATQRKYGYKSYYYWGQGTQVTVSS | high polyreactivity
12 | QDQLVESGGGLVQAGGSLRLSCAASASIFNVNTMGWYRQAPGKERELVAAISYSGGSTYYADSVKGRFTISRDIAKNTVYLQMISLKPEDTAFYYCNVSPTTTVDGGGYDSWGQGTQVTVSS | low polyreactivity
13 | QDQLVESGGGLVQAGGSLRLSCAASGFIFADYAMGWYRQATGKERELVAAISWGGGSTYYADSVKGRFTISRDIAKNTVYLQMNSLKPEDTAVYYCAAANPGSEYDYWGQGTQVTVSS | high polyreactivity
14 | QDQLVESGGGLVQAGGSLRLSCAASGFIFLPYVMGWYRQAPGKERELVAAISGGGGITYYADSVKGRFTISRDNAKNTVYLQMNSLKPEDTAVYYCAARRQRFGYWGQGTQVTVSS | low polyreactivity
15 | QDQLVESGGGLVQAGGSLRLSCAASGFIFSPYAMGWYRQAPGKERELVAAINGGGRTYYADSVKGRFTISRDNAKNTVYLQMNILKPEDTAVYYCAVDPISQGHMDYWGQGTLVTVSS | low polyreactivity
16 | QDQLVESGGGLVQAGGSLRLSCAASGFIIQGNAMGGYRQAPRKERELVAAISSSVSTYYADSVKGRFTISRDNAKNTVYLQMNSLKPEDTAVYYCNSGFPLSLWLGDYWGQGTQVTVSS | low polyreactivity
17 | QDQLVESGGGLVQAGGSLRLSCAASGFIVHRYVMGWYRQAPGKERELVAAISSGGSTNYADSVKGRFTISRDNAKNSVYLQMTSLKPEDTAVYYCAADGFYYRNWGRFRYYYWGQGTQVNVSS | low polyreactivity
